For orientation: EC50 means the concentration at which the effect is half-maximal.

Positions count from the first letter of the chain named. No end group written: not given here. *: point of attachment. Biotin = O=C1N[C@H]2[C@H](CS[C@H]2CCCCC(=O)*)N1; C6spacer = C6 spacer

We go through 6 molecules from patent US20250236666A1 (UNIVERSITE DE LILLE, published 2025).

Experiment [1] addresses T1, Peptide 2 (Pore Forming 1) TEDPEELGHFYDYPMAK-[biot] (human).
T1 construct: Synthetic biotinylated peptide immobilized at 10 µg/mL on streptavidin plates; also called P2
T1 peptide: TEDPEELGHFYDYPMAK-biotin
The experiment in a line: dose-response ELISA, biotinylated peptide on streptavidin plate, IgG 0.00282 to 500 nM, anti-Fab-HRP. How it is done: (§1) TRPV6 biotinylated peptides were immobilized at 10 μg/mL on a streptavidin coated plate. IgGs binding was tested at different concentrations (from 0.00282 to 500 nM) and detected using an anti-Fab-HRP (Sigma A0293).
(§2) IgGs binding to Human TRPV6 peptides was tested by ELISA. TRPV6 biotinylated peptides were immobilized at 10 μg/mL on a streptavidin coated plate. IgGs binding was tested at different concentrations (from 0.00282 to 500 nM) and detected using an anti-Fab-HRP (Sigma A0293).
Background: ELISA stands for enzyme-linked immunosorbent assay.

Experiment [2] addresses T2, Peptide 3 (Pore Forming 2) [biot]-[C6spacer]-DGPANYNVDLPFMYS (human).
T2 construct: Synthetic biotinylated peptide immobilized at 10 µg/mL on streptavidin plates; also called P3
T2 peptide: {Biotin-C6spacer}-DGPANYNVDLPFMYS
The description is as above. The method, then:
as §1, §2

Experiment [3] concerns the target T3, Human Transient Receptor Potential Vanilloid 6 (TRPV6) channel protein (human, UniProt Q9H1D0 1-765, glycosylated/mature form (band around 95-100 kDa); N-glycosylation site at position 397).
T3 construct: Endogenous or vector-expressed TRPV6 of human cell lines (LNCaP, PC3M luc C6, transfected HEK); On live cells in flow cytometry and the functional assays; in whole cell lysates under denaturing conditions (monomer) in the immunoblots; also called hTRPV6
T3 sequence: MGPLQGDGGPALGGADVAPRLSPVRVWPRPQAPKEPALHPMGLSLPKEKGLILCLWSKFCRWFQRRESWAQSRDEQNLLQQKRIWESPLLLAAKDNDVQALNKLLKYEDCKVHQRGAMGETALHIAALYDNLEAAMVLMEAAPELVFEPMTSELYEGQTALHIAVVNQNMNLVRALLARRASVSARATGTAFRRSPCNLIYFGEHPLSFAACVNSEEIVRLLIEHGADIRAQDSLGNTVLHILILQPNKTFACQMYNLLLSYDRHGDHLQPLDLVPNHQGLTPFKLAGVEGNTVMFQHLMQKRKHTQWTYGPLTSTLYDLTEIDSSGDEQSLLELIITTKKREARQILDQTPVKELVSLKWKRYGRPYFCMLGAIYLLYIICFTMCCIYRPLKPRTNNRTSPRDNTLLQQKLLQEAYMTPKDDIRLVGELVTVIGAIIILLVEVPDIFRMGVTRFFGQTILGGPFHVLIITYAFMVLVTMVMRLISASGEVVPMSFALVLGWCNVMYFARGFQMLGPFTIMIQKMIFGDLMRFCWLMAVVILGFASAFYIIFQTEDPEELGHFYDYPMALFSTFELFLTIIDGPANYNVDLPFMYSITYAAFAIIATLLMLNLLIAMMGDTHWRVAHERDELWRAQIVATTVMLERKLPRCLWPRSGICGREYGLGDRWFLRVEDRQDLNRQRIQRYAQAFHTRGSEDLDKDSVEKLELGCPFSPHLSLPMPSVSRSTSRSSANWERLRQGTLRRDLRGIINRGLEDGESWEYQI
Briefly: immunoblotting of LNCaP whole cell lysates, denaturing conditions. On the technique in general: A western blot detects proteins with antibodies after separation by electrophoresis.

B1: Monoclonal antibody P2-R4-G08 (antibody, human IgG1, kappa, V domains shown)
VH: EVQLVESGGSLVKPGGSLRLSCAASGFTFSNYGMNWVRQAPGKGLEWISGISGSSRSIGYADFVKGRFTISRDNAKNSLYLQMNSLRAEDTAVYYCVRSSYYYGMDVWGRGTLVTVSS
VL: QSVLTQPASVSGSPGQSITISCAGTSSDVGGYGQVSWYQQHPGKAPKLMIYSDSSRPSGVSNRFSGSKSGNTASLTISGLQAEDEADYYCSSYTSYSTRVFGGGTKLEIKR
notes: scFv from phage display subcloned into Human IgG1 format, expressed in HEK293T; also called P2-R4-G8
Molecule B1 had an EC50 in experiment [1] of 0.49 nM.

B2: Monoclonal antibody P3-R5-H03 (antibody, human IgG1, kappa, V domains shown)
VH: B1 VH with Y32A, G50Y, S57Y, G59N, Y101S, Y102S
VL: B1 VL with Y32G, G33Y, Q34Y, S52G, S55N, Y93N, S95Y
notes: scFv from phage display subcloned into Human IgG1 format, expressed in HEK293T; also called P3-R5-H3
Turning to B2, it took 0.36 nM to reach a half-maximal effect in experiment [2] (EC50).

B3: Monoclonal antibody P3-R4-E11 (antibody, human IgG1, kappa, V domains shown)
VH: EVQLVESGGSLVKPGGSLRLSCAASGFTFSNSGMNWVRQAPGKGLEWISGISGSSRYIGYADFVKGRFTISRDNAKNSLYLQMNSLRAEDTAVYYCVRSNYGGMDVWGRGTLVTVSS
VL: B1 VL with Q34Y, S52Y, S55Y, Y96Q
notes: scFv from phage display subcloned into Human IgG1 format, expressed in HEK293T
Molecule B3 registered an EC50 in experiment [2] of 0.9 nM.

B4: Monoclonal antibody P3-R5-E06 (antibody, human IgG1, kappa, V domains shown)
VH: EVQLVESGGSLVKPGGSLRLSCAASGFTFSNAYMNWVRQAPGKGLEWISSISGSSSYIGYADFVKGRFTISRDNAKNSLYLQMNSLRAEDTAVYYCVRSSYYNYDYGDAMDVWGRGTLVTVSS
VL: B1 VL with Y32N, G33Y, Q34Y, S52Q, S55N, S95G
notes: scFv from phage display subcloned into Human IgG1 format, expressed in HEK293T; also called P3-R5-E6
B4 yielded an EC50 in experiment [2] of 0.98 nM.

B5: Monoclonal antibody P3-R4-F03 (antibody, human IgG1, kappa, V domains shown)
VH: EVQLVESGGSLVKPGGSLRLSCAASGFTFSNNYMNWVRQAPGKGLEWISSIGGSSRDIYYADFVKGRFTISRDNAKNSLYLQMNSLRAEDTAVYYCVRSNSGMDVWGRGTLVTVSS
VL: B1 VL with Y32S, G33Y, Q34S, S52Y, S55Y, Y93N, S95Q, Y96S
notes: scFv from phage display subcloned into Human IgG1 format, expressed in HEK293T; also called P3-R4-F3
Molecule B5 came in with an EC50 in experiment [2] of 0.86 nM.

B6: Mouse monoclonal anti-TRPV6 antibody 82 (mAb82) (antibody, mouse IgG2a, kappa, V domains shown)
VH: EVKLLESGGGLVQPGGSLKLSCAASGFDFRRYWMSWVRQAPGKGLEWIGEINPDSSTINYTPSLKDKFIISRDNAKNTLYLQMSKVRSEDTALYYCARSASSHYFDYWGQGTTLTVSS
VL: DIVMSQSPSSLAVSVGEKVTMSCKSSQSLLYSSNQKNYLAWYQQKPGQSPKLLIYWASTRESGVPDRFTGSGSGTDFTLTISSVKAEDLAVYYCQQYYRYPTFGGGTKLEIKR
notes: also called mab82a; No. 82a
Consider B6, for which the binding result in experiment [3] was “binds”.
